{
  "source": "paper PMC7979852",
  "about": "“Alpha-1 antitrypsin inhibits TMPRSS2 protease activity and SARS-CoV-2 infection” (Nature Communications, 2021)",
  "target": "T1, α1-antitrypsin (human, UniProt P01009 25-418)",
  "T1 construct": "alpha-1-antitrypsin (SERPINA1), human, plasma-derived, 52 kDa; The activity assays used Prolastin; also called α1AT; alpha-1 antitrypsin; source: bought: Merck (A9024) or GRIFOLS (Prolastin), purified from human plasma",
  "T1 sequence (P01009 25-418)": "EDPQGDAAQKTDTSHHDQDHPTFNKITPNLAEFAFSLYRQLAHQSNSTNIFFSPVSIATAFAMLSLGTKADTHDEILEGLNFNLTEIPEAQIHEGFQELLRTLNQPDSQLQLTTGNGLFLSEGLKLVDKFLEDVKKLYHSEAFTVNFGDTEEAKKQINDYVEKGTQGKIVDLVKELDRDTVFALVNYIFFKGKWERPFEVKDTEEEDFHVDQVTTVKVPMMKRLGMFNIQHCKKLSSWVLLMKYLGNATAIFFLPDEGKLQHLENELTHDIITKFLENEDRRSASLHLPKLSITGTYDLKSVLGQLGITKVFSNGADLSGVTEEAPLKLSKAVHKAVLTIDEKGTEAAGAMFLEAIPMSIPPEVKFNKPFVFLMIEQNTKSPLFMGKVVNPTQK",
  "experiment": "SPR; TMPRSS2 amine-coupled (NHS/EDC) on an MUA-functionalised gold chip, Reichert SR7000; α1AT flowed at 0-20 µM in 10 mM HEPES, 150 mM NaCl, 0.05 % Tween-20, pH 7.5, 10 µl/min; equilibrium analysis",
  "settings": "both partners purified",
  "data": [
    {"binder": "recombinant TMPRSS2 (enzyme, TMPRSS2, human, recombinant protein from Creative BioMart; No catalogue number or construct limits are printed; The cell-associated activity assay used TMPRSS2 expressed from Addgene 53887 in HEK293T cells; also called recombinant human TMPRSS2; transmembrane serine protease 2; source: bought: Creative BioMart) not shown", "values": [
      {"measurement": "Kd", "result": "941 ± 297", "unit": "nM"}
    ]}
  ]
}
